Results published in patent US20210332111A1 (WASHINGTON UNIVERSITY, published 2021).
Where “and” joins values, the source holds several entries; their conditions need not be identical. Identical values can stand only once. Like-named read-outs stand apart in the source and are kept apart here.

Columns and labels:
[1] = target: T1, recombinant ZIKV DIII (domain III of the E protein, strain H/PF/2013, residues 299 to 407) (Zika virus, strain H/PF/2013, UniProt A0A024B7W1 591-694); assay: BLI, equilibrium
DENV4 E = target: T2, DENV4 E; assay: direct ELISA, antigen coated at 2 µg/ml, OD 450 nm
T2 construct: also called DV4-E; recombinant DENV-4 E ectodomain

[2] = target: T1, recombinant ZIKV DIII (domain III of …); assay: BLI, biotinylated mAb on streptavidin sensor, DIII in solution; KD (equilibrium)
[3] = target: T1, recombinant ZIKV DIII (domain III of …); assay: BLI; half-life calculated from the dissociation constant, kd kinetic
[4] = target: T3, ZIKV quad-fusion-loop variant of the E ectodomain (ZIKV E-FL) (Zika virus, strain H/PF/2013); assay: direct ELISA, antigen coated at 2 µg/ml, mAb at 0.5 µg/ml, OD 450 nm
T3 construct: Variant of m8

[5] = target: T1, recombinant ZIKV DIII (domain III of …)
[6] = target: ZIKV strain H/PF/2013 (French Polynesia, 2013), infectious virus (Zika virus, strain H/PF/2013); assay: cell-based or functional assay
[7] = target: T4, recombinant WNV E ectodomain (strain New York 1999) (West Nile virus, strain New York 1999, UniProt Q9Q6P4 291-694); assay: ELISA on plate-adsorbed WNV E
T4 construct: range 291-694
T4 sequence: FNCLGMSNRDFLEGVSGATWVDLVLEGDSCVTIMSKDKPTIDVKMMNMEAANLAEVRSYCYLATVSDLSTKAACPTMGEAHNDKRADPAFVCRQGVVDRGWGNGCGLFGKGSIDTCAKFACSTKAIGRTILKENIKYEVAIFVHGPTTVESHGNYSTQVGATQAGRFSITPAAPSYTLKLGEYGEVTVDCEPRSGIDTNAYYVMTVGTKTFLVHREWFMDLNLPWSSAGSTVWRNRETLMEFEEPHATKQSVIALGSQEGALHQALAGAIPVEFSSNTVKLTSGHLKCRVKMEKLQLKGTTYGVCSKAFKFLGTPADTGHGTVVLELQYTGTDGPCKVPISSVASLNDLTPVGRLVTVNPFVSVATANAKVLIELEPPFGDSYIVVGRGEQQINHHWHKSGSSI

[8] = target: T5, recombinant soluble ZIKV E protein ectodomain (strain H/PF/2013) (Zika virus, strain H/PF/2013); assay: direct ELISA, antigen coated at 2 µg/ml, mAb at 0.5 µg/ml, OD 450 nm
T5 construct: also called ZIKV E ectodomain; monomeric form of the ectodomain of E

ZIKV = target: T6, ZIKV; assay: flow cytometry, infected cells fixed and permeabilized, mAb at 10 µg/ml, Alexa Fluor 647 anti-mouse IgG
T6 construct: also called ZIKV H/PF/2013-infected Vero cells

[9] = target: T1, recombinant ZIKV DIII (domain III of …); remark: listed apart in the source
[10] = target: ZIKV subviral particles (SVPs, prM-E of strain H/PF/2013) (Zika virus, strain H/PF/2013)
[11] = target: T1, recombinant ZIKV DIII (domain III of …); remark: listed apart in the source

B1: ZV-2 monoclonal antibody (antibody, V domains shown)
VH: QVQLQESGAELMKPGASVKLSCKTSGYTFIGYWIEWLKQRPGHGLEWVGEIFPGSGRTKYNEKFKGRATFTADTSSNMAYMQLSSLTTEDSAIYYCARYYYGSYYALDYWGQGTSVTVSS
VL: DIVMTQSPSSLSVSAGEKVTLSCKSSQSLLHSGNQKNYLAWYQQKPGQAPKLLIYGASTRESGVPDRFTGSGSGTDFTLTISSVQAEDLAVYYCQNDHSYPLTFGAGTKLELK
notes: also called ZIKV-2
- Kd [1]: > 250 nM
- binding result (DENV4 E): no binding (tested: 0.5 µg/ml)
- Kd [2]: 266 nM
- t1/2 [3]: 0.3 min
- binding result [4]: binds
- Kd [5]: 121 nM and 295 nM
- % Neutralization (undiluted sups), focus reduction on Vero cells [6]: < 30%
- binding result [7]: no binding (tested: 0.5 µg/ml)

B2: ZV-48 monoclonal antibody (antibody, V domains shown)
VH: QVQLQQPGAELLKPGASVKLSCKASGYSFSNYWMHWVKQRPGQGPEWIGMIHPNSGNTKYNEKFKNKATLTVDKSSSMVYMQLSSLTSEDSAVFYCARLGNDMDYWGQGTSVTVSS
VL: DIVMSQSPSSLAVSVGEKITMSCKSSQSLLYSNNEKNYLAWYQQKPGQSPKLLIYWASARDSGVPDRFTGSGSGTDFTLTISSVKAEDLAVFYCQQYYSYPYTFGGGTKLEIK
notes: also called ZIKV-48
- Kd [1]: ~35 nM
- binding result (DENV4 E): no binding (tested: 0.5 µg/ml)
- Kd [2]: 35 nM
- t1/2 [3]: 3.2 min
- binding result [4]: binds
- binding result [8]: binds
- Kd [5]: 26.8 nM and 35.2 nM
- koff [5]: 0.0038 s⁻¹
- kon [5]: 148000 M⁻¹ s⁻¹
- binding result (ZIKV): binds
- % Neutralization (undiluted sups), focus reduction on Vero cells [6]: 100%
- binding result [7]: no binding (tested: 0.5 µg/ml)

B3: ZV-54 monoclonal antibody (antibody, V domains shown)
VH: QVQLQQSGVGLARPGTSVKLSCKASGYSFTTYGISWVTQRPGQGLEWIGVIYPRSNNTYYNERFRGKATLTADKSSSSAYLELRGLTAEDSAVYFCARENYGSVYWGQGTTLTVSS
VL: DIVMTQSQKFMSTSVGDRVTITCKASQSVGTAVAWYHQKPGQSPKLLIYSASNRYTGVPDRFTGSGSGTDFTLTITYMQSEDLADYFCQQFSNYPFTFGGGTKLEIK
notes: also called ZIKV-54
- Kd [1]: < 10 nM
- binding result (DENV4 E): no binding (tested: 0.5 µg/ml)
- Kd [2]: 7.9 nM
- t1/2 [3]: 33 min
- koff [9]: 0.000312 s⁻¹
- kon [9]: 149000 M⁻¹ s⁻¹
- binding result [4]: binds
- binding result [8]: binds
- binding result (ZIKV): binds
- % Neutralization (undiluted sups), focus reduction on Vero cells [6]: 100%
- binding result [7]: no binding (tested: 0.5 µg/ml)

B4: ZV-67 monoclonal antibody (antibody, V domains shown)
VH: QAQLQQSGTGLARPGASVKLSCKASGYTFTSYGISWVTQRAGQGLEWIGVIYPRSGNTYYNEKFRGKATLTADKSSSSAYMELRGLTAEDSAVYFCARENYGSVYWGQGTTLTVSS
VL: DIVMTQSQKFMSTSVGDRVSITCKASQNVGTAVAWYQQKPGQSPKLLIYSASNRYTGVPDRFTGSGSGTDFTLTISNMQSEDLADYFCQQFSSYPYTFGGGTKLEIK
notes: also called ZIKV-67
- Kd [1]: < 10 nM
- binding result (DENV4 E): no binding (tested: 0.5 µg/ml)
- Kd [2]: 8.8 nM
- t1/2 [3]: 13.8 min
- binding result [4]: binds
- binding result [8]: binds
- EC50 (read off the curve) [10]: ~5 ng/mL
- binding result (ZIKV): binds
- % Neutralization (undiluted sups), focus reduction on Vero cells [6]: 100%
- binding result [7]: no binding (tested: 0.5 µg/ml)
- Kd [11]: 6.77 nM and 9.89 nM
